The target of test [1] is T1, recombinant biotinylated human PAR2 extracellular domain (residues 1-75), N-terminal AviTag, C-terminal Flag … (human, UniProt P55085 26-75, biotin on the AviTag (enzymatic biotinylation)).
T1 construct: also called Bio-human-PAR2 ECD; human PAR2 ECD; not shown: N-terminal AviTag (Avidity LLC); C-terminal Flag and poly Histidine tags
Description: Biacore SPR 25 C, pH 6.0. For orientation: In SPR one partner is held on a chip, and binding of the other changes the refractive index at the surface.

Test [2] concerns the target T2, recombinant biotinylated rat PAR2 extracellular residues 1-75, N-terminal AviTag, C-terminal Flag and poly … (rat, UniProt Q63645 26-75, not fully specified; biotin on the AviTag (enzymatic biotinylation)).
T2 construct: range 1-75; not shown: N-terminal AviTag (Avidity LLC); C-terminal Flag and poly Histidine tags
T2 chain (looked up): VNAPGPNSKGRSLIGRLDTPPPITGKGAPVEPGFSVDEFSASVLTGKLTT
As to the kind of experiment: Biacore SPR 25 C, pH 6.0.

Test [3] concerns the target T1, recombinant biotinylated human PAR2 …. As to the kind of experiment: Biacore SPR 25 C, pH 7.4.
Test [4] deals with T2, recombinant biotinylated rat PAR2 …. Description: Biacore SPR 25 C, pH 7.4.
Test [5] addresses T1, recombinant biotinylated human PAR2 …. As to the kind of experiment: Biacore SPR 25 C, pH 5.6. How it is done:
(§1) The experiments were carried out using recombinant human, rat and cynomolgus PAR2 with an N-terminal Avi tag and C-terminal Flag-His tags.
(§2) Streptavidin was covalently immobilised to a C1 chip surface using standard amine coupling techniques at a concentration of 4 μg/ml in 10 mM Sodium acetate pH 4.5. A final streptavidin surface of approximately 30-100 RUs was achieved. Recombinant biotinylated PAR2 species (produced in-house) were titrated onto the streptavidin chip surface at 4 μg/ml in HBS-EP+ buffer to enable Fab binding at saturation (Rₘₐₓ). This low level of analyte binding ensured minimal mass transport effects.
(§3) The anti-PAR2 Fabs were serially diluted (0.39 nM-25 nM) in HBS-EP+ buffer pH 7.4 or MES-BS-EP+ pH 6.0 buffer or in MES-BS-EP+ pH 5.6 buffer and flowed over the chip at 50 μl/min, with 3 minutes association and up to 30 minutes dissociation. Multiple buffer-only injections were made under the same conditions to allow for double reference subtraction of the final sensorgram sets, which were analysed using the BiaEval software (version 2.0.1). The chip surface was fully regenerated with pulses of 4 M MgCl₂.

The target of test [6] is T3, recombinant biotinylated cynomolgus (Macaca fascicularis) PAR2 extracellular residues 1-75, N-terminal … (cynomolgus (Macaca fascicularis)).
T3 construct: range 1-75; also called cynomolgus PAR2
Description: Biacore SPR 25 C, pH 5.6. How it is done:
as §1, §2, §3

In test [7] the target is T1, recombinant biotinylated human PAR2 …. Description: Biacore SPR 25 C, pH 6.0. How it is done: as §1, §2, §3
This is another data set of the same source.

Test [8] deals with T3, recombinant biotinylated cynomolgus …. As to the kind of experiment: Biacore SPR 25 C, pH 6.0. As to the method:
as §1, §2, §3

The target of test [9] is T1, recombinant biotinylated human PAR2 …. Description: Biacore SPR 25 C, pH 7.4. How it is done:
as §1, §2, §3
This is another data set of the same source.

In test [10] the target is T3, recombinant biotinylated cynomolgus …. Description: Biacore SPR 25 C, pH 7.4. How it is done: as §1, §2, §3
Test [11] has as its target T1, recombinant biotinylated human PAR2 …. As to the kind of experiment: Biacore SPR 25 C, pH 6.0 (second row). How it is done: as §1, §2, §3
Test [12] concerns the target T3, recombinant biotinylated cynomolgus …. Description: Biacore SPR 25 C, pH 6.0 (second row). As to the method: as §1, §2, §3
Test [13] has as its target T1, recombinant biotinylated human PAR2 …. As to the kind of experiment: Biacore SPR 25 C, pH 7.4 (second row). How it is done: as §1, §2, §3
For test [14], the target named is T3, recombinant biotinylated cynomolgus …. As to the kind of experiment: Biacore SPR 25 C, pH 7.4 (second row). How it is done:
as §1, §2, §3

Test [15] addresses T1, recombinant biotinylated human PAR2 …. As to the kind of experiment: Biacore SPR 25 C, pH 7.4; pH 7.4; human; second determination. As to the method:
as §1, §2, §3

The target of test [16] is T4, human PAR2 on cells (endogenous in A549 cells; overexpressed in 1321N1-hPAR2-c18 cells) (human, UniProt P55085 37-397).
T4 sequence: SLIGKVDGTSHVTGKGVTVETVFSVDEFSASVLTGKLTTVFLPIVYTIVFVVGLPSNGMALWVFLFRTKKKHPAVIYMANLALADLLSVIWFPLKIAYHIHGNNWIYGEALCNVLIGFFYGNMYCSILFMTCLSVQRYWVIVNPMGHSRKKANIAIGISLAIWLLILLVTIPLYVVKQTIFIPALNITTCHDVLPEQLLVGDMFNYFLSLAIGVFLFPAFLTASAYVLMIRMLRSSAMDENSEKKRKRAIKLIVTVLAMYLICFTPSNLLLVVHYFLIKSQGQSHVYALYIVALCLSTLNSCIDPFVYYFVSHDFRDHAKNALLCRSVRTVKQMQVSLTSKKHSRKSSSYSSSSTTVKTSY
Description: cell-based or functional assay.

Test [17] addresses T1, recombinant biotinylated human PAR2 …. Description: HTRF competition with Dylight650-Par0067 IgG, IgG. As to the method:
(§4) Parent Par0067 IgG (used as a reference/control in all assays) was pre-diluted to give a 2000 nM stock in each of the two different pH assay buffers (in order to give a top final assay IgG concentration of 500 nM). All test, or other reference/control IgG were tested from a top final assay concentration of ¼ of the neat undiluted sample (i.e. no pre-dilution step was performed). Duplicate 11 point 1:3 serial dilutions then were prepared on 384 well polypropylene Greiner plates in each of the two assay buffers (pH 7.4 & 6.0). 5 μl per well was transferred from the relevant pH IgG dilution plate to the corresponding assay plate (pH 7.4 and pH 6.0). 5 ul of the appropriate pH assay buffer was added to the total and non-specific wells.
(§5) For multipoint dose response curves % Specific Binding values were plotted versus test purified antibody concentration (scFv or IgG). IC₅₀ values were determined via a sigmoidal dose response inhibition variable slope curve fit (4 parameter logistic equation) using Graphpad Prism Software.

Test [18] shares this target. Description: HTRF competition with Dylight650-Par0067 IgG, pH 7.4, IgG. As to the method: as §4, §5
(TR-FRET usually uses a lanthanide donor and a delayed reading to cut background.)

Test [19] shares this target. Description: Biacore SPR 25 C, pH 6.0; pH 6.0; human PAR2. How it is done:
as §1, §2, §3

Residue numbers refer to the chain shown, from its start. In names and notes the source's numbering stands.

T1 sequence (P55085 26-75): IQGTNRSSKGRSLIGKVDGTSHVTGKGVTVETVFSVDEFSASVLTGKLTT

B1: PaB670129 Fab (Fab, V domains shown)
VH: EVQLLESGGGLVQPGGSLRLSCAASGFTFSSYAMNWVRQAPGKGLEWVSTISYHGSHISYHDSVHHRFTISRDNSKNTLYLQMNSLRAEDTAVYYCARIHHDPMDVWGQGTLVTVSS
VL: SIELTQPPSVSVSPGQTASITCSGDNLGKKYVQWYQQKPGQSPVLVIYDDSNRPSGIPERFSGSNSGNTATLTISGTQAMDEADYYCQTWDGNPTTGETNVFGGGTKLTVL
notes: Fab; also called ZZ1RUE-F02
Broadly, the Kd is the equilibrium constant for the complex coming apart. Broadly, the koff is the rate constant with which the complex falls apart. The kon is the rate constant with which the complex forms. Take B1: the dissociation constant Kd stood at 0.0348 µM in test [1]; 0.0579 µM in [2]; 0.000614 µM in test [3]; 0.00298 µM in test [4]; 0.0846 µM in test [5]; 0.0378 µM in test [6]. For the same molecule, the Kd came to 0.0369 µM in [7]; 0.0128 µM in test [8]; 0.000748 µM in [9]; 0.000333 µM in [10]; 0.0335 µM in test [11]; 0.0136 µM in test [12]. For the same molecule, the dissociation constant (Kd) was 0.000778 µM in test [13] and 0.000335 µM in test [14]. The koff in [1] amounted to 0.0554 s⁻¹; in test [2] it was 0.0841 s⁻¹; in test [3] it was 0.00504 s⁻¹; in test [4], 0.0263 s⁻¹; in [5] it was 0.112 s⁻¹; in test [6], 0.139 s⁻¹. Further, the off-rate (koff) came to 0.0576 s⁻¹ in [7]; 0.0275 s⁻¹ in [8]; 0.00534 s⁻¹ in test [9]; 0.00223 s⁻¹ in test [10]; 0.109 s⁻¹ in test [11]; 0.0236 s⁻¹ in [12]. For the same molecule, the dissociation rate constant (koff) came out at 0.0053 s⁻¹ in test [13] and 0.00221 s⁻¹ in test [14]. Also, the kon worked out at 1.59e+06 M⁻¹ s⁻¹ in [1]; 1.45e+06 M⁻¹ s⁻¹ in [2]; 8.2e+06 M⁻¹ s⁻¹ in test [3]; 8.82e+06 M⁻¹ s⁻¹ in test [4]; 1.33e+06 M⁻¹ s⁻¹ in [5]; 3.66e+06 M⁻¹ s⁻¹ in test [6]. The kon in [7] was determined as 1.56e+06 M⁻¹ s⁻¹; in [8] it was 2.14e+06 M⁻¹ s⁻¹; in [9], 7.14e+06 M⁻¹ s⁻¹; in test [10] it was 6.67e+06 M⁻¹ s⁻¹; in test [11] it was 3.26e+06 M⁻¹ s⁻¹; in [12], 1.74e+06 M⁻¹ s⁻¹. For the same molecule, the kon in [14] was determined as 6.59e+06 M⁻¹ s⁻¹; in test [15], 6.81e+06 M⁻¹ s⁻¹.

B2: PaB670129 IgG1TM (antibody, V domains shown)
VH: B1 VH
VL: B1 VL
notes: IgG1-TM (L234F, L235E, P331S), human lambda light chain; also called ZZ1RUE-F02
The term IC50 denotes the concentration that gives 50% inhibition. Turning to B2, in test [16], the “IC50 (read off the curve); calcium response to trypsin in presence of PaB670129, human A549 cells” value was about 0.0001 µM. In addition, the “Fold IC50 pH 7.4 (Variant v Par0067)” value in test [17] amounted to 67.2 fold. Moreover, the half-inhibitory concentration (IC50) in test [18] was 0.0561 µM.

B3: PaB670136 Fab (Fab, V domains shown)
VH: B1 VH with S56H, H61A, V64H, V106H
VL: B1 VL
notes: Fab; also called ZZ1RUF-A01
As to B3, the Kd in test [1] was determined as 0.0188 µM; in [2] it was 0.0376 µM; in [3], 0.000957 µM; in [4] it was 0.00415 µM. The koff in test [2] is 0.0589 s⁻¹; in [3], 0.00495 s⁻¹; in [4] it was 0.0314 s⁻¹; in [19], 14.9 s⁻¹. Besides, the association rate constant (kon) in test [2] was found to be 1.57e+06 M⁻¹ s⁻¹; in [3] it was 5.17e+06 M⁻¹ s⁻¹; in [4], 7.57e+06 M⁻¹ s⁻¹; in [19], 7.92e+08 M⁻¹ s⁻¹.

These data come from patent publication US20180305450A1 (AstraZeneca / MedImmune, published 2018).
